Measurements from the Human Domainome abundance scans (Beltran et al. 2025).
± gives the uncertainty stated by the source.

B1: Transcription factor SOX-4, residues 60 to 127; numbered along this chain, Q06945 (parent)
chain: KRPMNAFMVWSQIERRKIMEQSPDMHNAEISKRLGKRWKLLKDSDKIPFIREAERLRLKHMADYPDYK

Variants of: B1
Test: abundance fitness (aPCA) (normalised: wild type 0, dead -1); higher = more abundant; growth selection in yeast, the domain comes from the species named
Details: Homo sapiens

L34H and L34R are within error of each other in abundance fitness: -0.881 ± 0.12 for the first, -0.981 ± 0.14 for the second.

L34V and L34E are within error of each other in abundance fitness: -0.83 ± 0.18 for the first, -0.639 ± 0.27 for the second.

First: L34S
Second: A28E
The abundance fitness of the first is lower: -0.621 ± 0.15 for the first, -0.078 ± 0.069 for the second.

A28D and A28I are within error of each other in abundance fitness: -0.152 ± 0.12 for the first, -0.463 ± 0.29 for the second.

Going from A28K to D24P, the abundance fitness falls from -0.099 ± 0.086 to -0.564 ± 0.11.

D24E and D24N are within error of each other in abundance fitness: -0.052 ± 0.051 for the first, -0.123 ± 0.063 for the second.

D24F and D24K are within error of each other in abundance fitness: -0.134 ± 0.043 for the first, -0.141 ± 0.064 for the second.

First: D24L
Second: D24Q
The abundance fitness of the first is lower: -0.251 ± 0.039 for the first, -0.114 ± 0.063 for the second.

L58V and L58T are within error of each other in abundance fitness: -0.046 ± 0.039 for the first, -0.087 ± 0.058 for the second.

Compared with L58Y, S11W is lower in abundance fitness: -0.286 ± 0.043 for the first, -0.608 ± 0.089 for the second.

S11N and S11D are within error of each other in abundance fitness: -0.762 ± 0.099 for the first, -0.758 ± 0.085 for the second.

Compared with S11F, R55L is lower in abundance fitness: -0.217 ± 0.044 for the first, -0.326 ± 0.046 for the second.

Compared with R55G, R55Y is lower in abundance fitness: -0.337 ± 0.035 for the first, -0.474 ± 0.1 for the second.

R55H and R55F are within error of each other in abundance fitness: -0.284 ± 0.073 for the first, -0.38 ± 0.059 for the second.

Going from R55K to R55W, the abundance fitness falls from -0.08 ± 0.072 to -0.44 ± 0.047.

Going from P3E to P3V, the abundance fitness falls from 0.072 ± 0.074 to -0.136 ± 0.049.

P3M and P3H are within error of each other in abundance fitness: -0.163 ± 0.063 for the first, -0.055 ± 0.064 for the second.

First: P3W
Second: P3N
The abundance fitness of the first is lower: -0.561 ± 0.077 for the first, -0.108 ± 0.049 for the second.

P3Q and P3S are within error of each other in abundance fitness: -0.048 ± 0.065 for the first, -0.122 ± 0.041 for the second.

Compared with K32W, K32H is higher in abundance fitness: -0.243 ± 0.049 for the first, -0.154 ± 0.039 for the second.

Going from K32I to K32D, the abundance fitness rises from -0.225 ± 0.063 to -0.012 ± 0.044.

K32P and K32G are within error of each other in abundance fitness: -0.498 ± 0.16 for the first, -0.361 ± 0.038 for the second.

R57T and R57C are within error of each other in abundance fitness: -0.19 ± 0.17 for the first, -0.048 ± 0.13 for the second.

R57S and R57L are within error of each other in abundance fitness: -0.309 ± 0.08 for the first, -0.328 ± 0.063 for the second.

Going from R57E to R57H, the abundance fitness falls from -0.111 ± 0.066 to -0.815 ± 0.41.

Going from R57A to R57G, the abundance fitness falls from 0.06 ± 0.062 to -0.247 ± 0.064.

R57V and A53S are within error of each other in abundance fitness: -0.413 ± 0.072 for the first, -0.431 ± 0.055 for the second.

A53C and A53G are within error of each other in abundance fitness: -0.824 ± 0.27 for the first, -0.684 ± 0.08 for the second.

Going from A53N to A53Q, the abundance fitness falls from -0.275 ± 0.24 to -0.898 ± 0.17.

Compared with A53M, A53R is lower in abundance fitness: -0.585 ± 0.088 for the first, -0.924 ± 0.087 for the second.

Compared with A53L, S44N is higher in abundance fitness: -0.856 ± 0.17 for the first, -0.23 ± 0.18 for the second.

Going from S44W to S44H, the abundance fitness rises from -0.41 ± 0.099 to -0.205 ± 0.1.

Going from S44A to S44F, the abundance fitness falls from 0.035 ± 0.053 to -0.442 ± 0.13.

Going from S44E to K1Q, the abundance fitness falls from 0.119 ± 0.1 to -0.788 ± 0.33.

First: K1E
Second: K1D
The abundance fitness of the first is lower: -0.317 ± 0.12 for the first, 0.048 ± 0.12 for the second.

Compared with N5V, N5G is higher in abundance fitness: -0.828 ± 0.16 for the first, -0.278 ± 0.081 for the second.

N5W and N5I are within error of each other in abundance fitness: -0.439 ± 0.16 for the first, -0.665 ± 0.23 for the second.

Compared with N5P, N5M is lower in abundance fitness: -0.546 ± 0.11 for the first, -0.842 ± 0.13 for the second.

Compared with E29D, E29C is lower in abundance fitness: -0.074 ± 0.062 for the first, -0.394 ± 0.2 for the second.

L41Q and L41K are within error of each other in abundance fitness: -0.889 ± 0.19 for the first, -0.653 ± 0.11 for the second.

L40Q and L40T are within error of each other in abundance fitness: 0.011 ± 0.071 for the first, 0.019 ± 0.065 for the second.

Going from L40P to L40I, the abundance fitness rises from -1.29 ± 0.41 to -0.468 ± 0.064.

Going from L40F to L40D, the abundance fitness rises from -0.34 ± 0.069 to 0.094 ± 0.058.

Going from P23A to P23F, the abundance fitness falls from -0.619 ± 0.074 to -0.97 ± 0.12.

P23V and P23H are within error of each other in abundance fitness: -0.634 ± 0.06 for the first, -0.548 ± 0.083 for the second.

P23Q and P23D are within error of each other in abundance fitness: -0.482 ± 0.09 for the first, -0.564 ± 0.059 for the second.

L56S and L56I are within error of each other in abundance fitness: -0.282 ± 0.049 for the first, -0.149 ± 0.093 for the second.

First: L56M
Second: L56D
The abundance fitness of the first is higher: 0.115 ± 0.14 for the first, -0.385 ± 0.13 for the second.

First: L56Q
Second: W10P
The abundance fitness of the first is higher: -0.108 ± 0.08 for the first, -0.751 ± 0.13 for the second.

W10C and W10Y are within error of each other in abundance fitness: -1.03 ± 0.43 for the first, -0.554 ± 0.2 for the second.

Compared with W10V, W10A is lower in abundance fitness: -0.621 ± 0.1 for the first, -1.03 ± 0.21 for the second.

D43S and D43N are within error of each other in abundance fitness: -0.237 ± 0.037 for the first, -0.294 ± 0.053 for the second.

D43W and D43A are within error of each other in abundance fitness: -0.106 ± 0.043 for the first, -0.061 ± 0.055 for the second.

D43P and D43I are within error of each other in abundance fitness: -0.137 ± 0.067 for the first, -0.226 ± 0.058 for the second.

F49M and F49V are within error of each other in abundance fitness: -1.08 ± 0.31 for the first, -0.763 ± 0.094 for the second.

F49G and F49S are within error of each other in abundance fitness: -0.702 ± 0.092 for the first, -0.763 ± 0.098 for the second.

F49I and F49K are within error of each other in abundance fitness: -0.82 ± 0.26 for the first, -0.879 ± 0.17 for the second.

First: F49T
Second: R2E
The abundance fitness of the first is lower: -0.623 ± 0.13 for the first, -0.362 ± 0.12 for the second.

R2M and R2D are within error of each other in abundance fitness: -0.088 ± 0.062 for the first, -0.053 ± 0.13 for the second.

R2L and M19H are within error of each other in abundance fitness: -0.275 ± 0.067 for the first, -0.368 ± 0.072 for the second.

Compared with M19S, M19L is higher in abundance fitness: -0.212 ± 0.039 for the first, 0.116 ± 0.041 for the second.

Going from M19V to E52C, the abundance fitness falls from -0.091 ± 0.046 to -0.353 ± 0.11.

E52T and E52W are within error of each other in abundance fitness: -0.477 ± 0.11 for the first, -0.58 ± 0.14 for the second.

Compared with E52H, E52R is higher in abundance fitness: -0.726 ± 0.3 for the first, -0.322 ± 0.1 for the second.

E52G and E52F are within error of each other in abundance fitness: -0.375 ± 0.13 for the first, -0.215 ± 0.11 for the second.

N27Y and N27I are within error of each other in abundance fitness: -0.179 ± 0.052 for the first, -0.192 ± 0.054 for the second.

N27W and N27R are within error of each other in abundance fitness: -0.019 ± 0.057 for the first, -0.112 ± 0.044 for the second.

Going from I30H to I30C, the abundance fitness rises from -1.11 ± 0.17 to -0.277 ± 0.046.

I30E and I30Y are the same in abundance fitness: -0.8 ± 0.092 for the first, -0.8 ± 0.11 for the second.

I30G and I30D are within error of each other in abundance fitness: -0.769 ± 0.055 for the first, -0.871 ± 0.11 for the second.

I47G and I47F are within error of each other in abundance fitness: -0.231 ± 0.039 for the first, -0.241 ± 0.051 for the second.

Going from I47M to I47H, the abundance fitness falls from -0.047 ± 0.05 to -0.314 ± 0.051.

Compared with I47P, I47N is higher in abundance fitness: -0.796 ± 0.4 for the first, -0.322 ± 0.05 for the second.

I47L and I47A are within error of each other in abundance fitness: 0.078 ± 0.038 for the first, 0.031 ± 0.063 for the second.

K68T and K68S are within error of each other in abundance fitness: -0.436 ± 0.45 for the first, -0.17 ± 0.096 for the second.

K68M and K68R are within error of each other in abundance fitness: -0.23 ± 0.31 for the first, -0.068 ± 0.079 for the second.

K68P and Q12T are within error of each other in abundance fitness: 0.128 ± 0.35 for the first, -0.166 ± 0.079 for the second.

Going from Q12D to Q12P, the abundance fitness falls from 0.179 ± 0.12 to -0.812 ± 0.15.

Q12H and I50R are within error of each other in abundance fitness: -0.116 ± 0.23 for the first, -0.2 ± 0.1 for the second.

R37N and R37K are within error of each other in abundance fitness: 0.101 ± 0.29 for the first, 0.052 ± 0.078 for the second.

R37Q and R37D are within error of each other in abundance fitness: -0.093 ± 0.21 for the first, -0.035 ± 0.091 for the second.

Compared with R37F, R37T is higher in abundance fitness: -0.714 ± 0.21 for the first, -0.05 ± 0.089 for the second.

First: D63G
Second: D63C
The abundance fitness of the first is higher: -0.142 ± 0.044 for the first, -0.397 ± 0.063 for the second.

Work on D63T yielded an abundance fitness of -0.104 ± 0.041.
